# Assay results reported in US20180289803A1 (Eli Lilly, published 2018).
# B1: Antibody C (bispecific antibody, human IgG1, kappa, lambda, L234A L235A)
# heavy 1: not shown
# light 1: not shown
# heavy 2: not shown
# light 2: DIVMTQSPSSLSASVGDGVTITCQASQDIYNYLNWYQQKPGKAPKLLIYYASSIVSGVPSRFSGSGSGTDFTLTISSLQPEDFATYYCQQASSFPPTFGQGTKLEIKRTVAAPSVFIFPPSDEQLKSGTARVGCLLNNFYPREAKVQWKVDNALQSGNSQESVTEQDSKDSTYSLRSALTLSKADYEKHKVYACEVTHQGLSSPVTKSFNRGEC
# Target: human PD-L1 (endogenous, in the mixed leukocyte reaction of human CD4 T-cells and monocyte-derived dendritic … (human, UniProt Q9NZQ7 19-290))
# Experiment: cell-based or functional assay
binder,measurement,value
B1,IFN-γ levels in the mixed leukocyte reaction (MLR) at 4 nM antibody,~3 fold
same,IFN-γ levels in the mixed leukocyte reaction (MLR) at 8 nM antibody,~5 fold
